# Test results reported in patent US20070184522A1, “Cell death modulation via antagonists of Fasl and Fas activation” (University of Pittsburgh of the Commonwealth System of …, priority 2004, published 2007).
# Tests used:
# [1] = tested on: liver (hepatocyte apoptosis); experiment: Jo2 (Fas agonist) induced liver apoptosis in Balb/c mice; assay type: in vivo; settings: for percentage of apoptotic cells by TUNEL staining: Balb/c mice liver, Jo2, AlphaMet 100 micrograms or YLGA polypeptides 300 micrograms per mouse; for enzymatic activity of caspase-3 in liver lysates: compared to Jo2 only group
# Description: For FIG. 5a, Balb/c mice (10 per group) were injected with Jo2 (2.5 μg/g of mouse body weight) in the presence of AlphaMet or polypeptides as indicated, and analyzed for the extent of hepatocyte apoptosis and liver damage by immunohisological and biochemical techniques. The percentage of TUNEL positive was determined in multiple liver lobes of each liver in random fields counting at least 500 hepatocytes in a double-blind manner. Frame A: Normal mouse liver; Frame B: Jo2 treated mouse liver; Frame C: Jo2 plus AlphaMet treated mouse; Frame D: Jo2 plus YLGA 12 mer; Frame E: Jo2 and YLGA tetramer treatment; Frame F: Jo2 and YLGA mutated AlphaMet, respectively. These studies were repeated three times with identical outcome. FIG. 5b graphically presents the quantification of hepatocyte apoptosis TUNEL positive nuclei. The data were analyzed by One-way ANOVA and P<0.05 was considered significant. For FIG. 5c, an equal amount of livers were subjected to Caspase 3 activity assay using DEVD-AFC as a substrate and DEVD-CHO as an inhibitor, as recommended by the manufacturer. The data are the mean and SE and were repeated in three independent experiments. The data were analyzed by One-way ANOVA and P<0.05 was considered significant.
# Animal studies. Male Balb/c mice weighing 30 grams were purchased from Jackson Laboratory and used according to an IACUC approved protocol. Induction of liver apoptosis and determination of Caspase 3 activity and histological evaluation were performed as described previously (Wang et al., 2002). Animals (10 per group) were anesthetized by isoflurane and injected with Jo2 (Pharmingen 2.5 microgram/gram body weight) with or without AlphaMet (100 micrograms recombinant AlphaMet or 300 micrograms of synthetic YLGA polypeptides) in a total of 100 micro liters of saline per mouse. Control groups (N=10 per group) consisted of saline only, Jo2 only, and Jo2 plus mutated AlphaMet or scrambled polypeptide. During the experiment which lasted approximately 6 hours, animals were closely monitored every 10 to 15 minutes and if they appeared to be moribund were immediately sacrificed and liver tissue and was removed for biochemical and histological studies.
# It is well known in the literature that the liver is one of the most sensitive organs to Fas mediated apoptosis. Injection of the Fas agonist Jo2 antibody, which causes mice to experience Fas aggregation resulting in massive hepatocyte apoptosis, fulminant hepatic failure, and death within hours. This model was used to test if AlphaMet and the YLGA polypeptides could protect livers from Fas-induced apoptosis. Given the fact that AlphaMet blocked Fas trimerization and Fas micro-aggregation, and the fact that Fas oligomerization is essential in Fas signaling, it was reasonable to suspect that AlphaMet could block the Fas mediated apoptosis in vivo. Balb/c mice were used in these experiments. Groups of animals (n=10) were injected systemically with Jo2 ([…] of body weight) with or without purified recombinant AlphaMet, synthetic 12 mer YLGA polypeptide (HHIYLGATNYIY, SEQ ID NO:26), or their control counterparts (N-terminally truncated AlphaMet, YLGA mutated recombinant AlphaMet or scrambled 12 mer polypeptide) as described in the materials and methods. Mice were sacrificed within 6 hours or sooner if they were moribund and their livers were subjected to biochemical determination of Caspase-3 activity and histological analyses (i.e. TUNEL staining).
# Hepa 1-6 cells = experiment: Fas-induced apoptosis in Hepa 1-6 cells (LDH activity assay); assay type: cell-based, mouse; settings: for FasL induced apoptosis: serum deprived Hepa 1-6 cells, crosslinked mouse Fas ligand 1 μg/ml overnight, LDH
# Description: For FIG. 4a, Jurkat cells (1.5×10^5) were overnight treated in triplicate with 5 ng/ml of crosslinked human Fas ligand with or without 5 μg/ml of recombinant AlphaMet or 1 μg/ml of the indicated polypeptides. Percent apoptosis was determined by Trypan Blue staining using a hemocytometer. The data are representative and were repeated at least four times. […] The 17 kDa fragment of cleaved Caspase 3 is visualized by this antibody. The blot was reprobed for β-actin as a loading control. For FIG. 4c, serum deprived Hepa 1-6 cells (3×10^5) were overnight treated with 1 μg/ml of crosslinked mouse Fas ligand with or without AlphaMet or the indicated polypeptide. Media were collected and centrifuged to pellet the dead cells. […] The data in FIG. 4c represents three independent experiments.
# Apoptosis assay. Pre-washed Jurkat cells in RPMI 1640 medium containing 1% FBS were inoculated in 96-wells at a density of 10^5 cells per well. Apoptosis was induced by cross-linked human Fas-ligand (R&D Systems) at a concentration of 0.5 ng/ml or Anti-Fas (human, activating) clone CH11 (Upstate biotechnology) at a concentration of 500 ng /ml. Hepa 1-6 cells were overnight starved before induction of apoptosis. The apoptosis in Hepa 1-6 was induced by anti-mouse Fas antibody Jo2 (200 ng/ml) or human recombinant Fas-ligand. The extent of cell viability and apoptosis was determined by several methods such as Trypan Blue stain, flow cytometry, LDH assay, and Hoechst staining.
Molecule,percentage of apoptotic cells by TUNEL staining [1],FasL induced apoptosis (Hepa 1-6 cells),enzymatic activity of caspase-3 in liver lysates ([1]; Balb/c mice),"liver hemorrhage (gross and microscopic) ([1]; Balb/c mice, Jo2 injection, within 6 hours)",apoptosis induced by the Fas agonist Jo2 (Hepa 1-6 cells; Hepa 1-6 cells),resistance to Fas killing of stable cell lines expressing the protein (Hepa 1-6 cells; Hepa 1-6 stable lines versus control vector clones)
YLGA [YLGA 4 mer],40%,significantly inhibited FasL induced apoptosis,,,,
HHIYLGATNYIY [12 mer],25%,significantly inhibited FasL induced apoptosis,significant reduction,,,
"alpha subunit of Met (AlphaMet), amino acid residues 1 to 306, His-tagged (receptor, mouse) MKAPTVLAPGILVLLLSLVQRSHGECKEALVKSEMNVNMKYQLPNFTAETPIQNVVLHGHHIYLGATNYIYVLNDKDLQKVSEFKTGPVLEHPDCLPCRDCSSKANSSGGVWKDNINMALLVDTYYDDQLISCGSVNRGTCQRHVLPPDNSADIQSEVHCMFSPEEESGQCPDCVVSALGAKVLLSEKDRFINFFVGNTINSSYPPGYSLHSISVRRLKETQDGFKFLTDQSYIDVLPEFLDSYPIKYIHAFESNHFIYFLTVQKETLDAQTFHTRIIRFCSVDSGLHSYMEMPLECILTEKRRKRHHHHHH",18%,significantly inhibited FasL induced apoptosis,significant reduction,little or no sign of hemorrhage,efficiently inhibited,dramatic resistance to Fas killing
